The values that follow come from US20030171537, “Peptides and peptidomimetics with structural similarity to human p53 that activate p53 function” (published 2003).

The data set has as its target p53 wild-type (Homo sapiens, UniProt P04637 SEQ:1-393). The data set can be described thus: EMSA; binds quite efficiently; PAb421 stimulation +. Particulars: chain copies: 4 inferred; label: 32P. On the technique in general: A gel shift assay detects complexes by their altered migration in electrophoresis.

Sequence of p53 wild-type (P04637 whole entry): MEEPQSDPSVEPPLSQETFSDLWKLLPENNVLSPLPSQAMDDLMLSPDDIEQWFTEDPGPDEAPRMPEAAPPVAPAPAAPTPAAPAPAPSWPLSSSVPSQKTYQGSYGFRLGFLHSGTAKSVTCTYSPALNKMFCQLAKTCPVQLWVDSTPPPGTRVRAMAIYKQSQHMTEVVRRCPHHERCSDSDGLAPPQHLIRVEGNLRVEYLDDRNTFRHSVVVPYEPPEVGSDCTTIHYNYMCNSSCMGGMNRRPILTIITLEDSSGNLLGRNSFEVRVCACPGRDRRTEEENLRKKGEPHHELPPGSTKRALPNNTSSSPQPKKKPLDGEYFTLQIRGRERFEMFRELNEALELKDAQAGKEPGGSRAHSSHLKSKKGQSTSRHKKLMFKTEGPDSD
Method: Briefly the in vitro translated protein is incubated with a radioactively labeled oligonucleotide containing a p53 binding site in the presence of non-specific competitor DNA. The reaction mixture is incubated 20 min. at room temperature and directly loaded on a native 5% polyacrylamide electrophoresis gel. In this type of DNA binding assay free DNA migrates to the bottom of the gel, whereas p53/DNA complexes migrate more slowly.

B1: BC (dsDNA)
DNA 1: CCGGGCATGTCCGGGCATGTCCGGGCATGT
DNA 2: ACATGCCCGGACATGCCCGGACATGCCCGG
As to B1, the binding result is “binds”.
